{
  "source": "patent US20100015126A1",
  "about": "“Methods of Binding of Cross-Beta Structures By Chaperones” (priority 2006, published 2010)",
  "key": {"[1]": {"assay": "Transmission electron microscopy (TEM)", "format": "physicochemical", "settings": "magnification 10K", "description": "Transmission Electron Microscopy (TEM)\nTEM images were collected using a Jeol 1200 EX transmission electron microscope (Jeol Ltd., Tokyo, Japan) at an excitation voltage of 80 kV. For each sample, the formvar and carbon-coated side of a 100-mesh copper or nickel grid was positioned on a 5 μl drop of protein solution for 5 minutes. Afterwards, it was positioned on a 100 μl drop of PBS for 2 minutes, followed by three 2-minute incubations with a 100 μl drop of distilled water. The grids were then stained for 2 minutes with a 100 μl drop of 2% (m/v) methylcellulose with 0.4% uranyl acetate pH 4. Excess fluid was removed by streaking the side of the grids over filter paper, and the grids were subsequently dried under a lamp. Samples were analysed at a magnification of 10K."}, "human BiP": {"molecular_target": "T1, human BiP (Homo sapiens, UniProt P11021)", "T1 construct": "The human BiP gene except the signal peptide encoding region was obtained from Geneart (Germany); linker […]; made in house; host or cells: HEK 293E cells, transient transfection, PABC674 vector; secreted into the medium", "T1 sequence (P11021 19-654)": "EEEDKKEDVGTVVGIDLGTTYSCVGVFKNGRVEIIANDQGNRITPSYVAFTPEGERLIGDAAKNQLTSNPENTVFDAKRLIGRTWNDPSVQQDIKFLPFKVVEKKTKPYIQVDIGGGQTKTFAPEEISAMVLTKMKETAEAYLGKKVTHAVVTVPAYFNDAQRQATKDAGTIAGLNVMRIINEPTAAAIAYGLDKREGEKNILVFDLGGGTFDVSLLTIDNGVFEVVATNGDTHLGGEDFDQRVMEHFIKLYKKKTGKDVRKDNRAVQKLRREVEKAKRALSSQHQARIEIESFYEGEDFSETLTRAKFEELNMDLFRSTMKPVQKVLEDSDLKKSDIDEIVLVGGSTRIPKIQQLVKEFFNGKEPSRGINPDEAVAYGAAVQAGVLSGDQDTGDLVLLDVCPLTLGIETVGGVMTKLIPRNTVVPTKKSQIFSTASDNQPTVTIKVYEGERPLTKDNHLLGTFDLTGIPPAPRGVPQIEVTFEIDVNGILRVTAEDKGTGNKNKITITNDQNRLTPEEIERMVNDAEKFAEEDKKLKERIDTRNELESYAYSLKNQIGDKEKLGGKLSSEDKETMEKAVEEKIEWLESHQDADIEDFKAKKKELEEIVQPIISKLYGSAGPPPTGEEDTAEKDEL", "assay": "ELISA: binding of BiP-FLAG-His to immobilized (misfolded) protein ligands", "settings": "ligands coated at 5 μg/ml; 6BB peptides and oxLDL 50 μg/ml", "description": "Enzyme Linked Immunosorbent Assay for Testing of Chaperone Binding to Misfolded Proteins\nBinding of chaperones to immobilized (misfolded) protein ligands was determined using an enzyme linked immuno sorbent assay (ELISA) approach. For this purpose 50 μl/well of potential ligands at indicated concentrations or coat buffer only for control and background measurement purposes, were coated overnight at 4° C. or coated for 1 h at room temperature, with motion, in 50 mM NaHCO3 pH 9.6 (coat buffer). In general, ligands were coated at 5 μg/ml, unless stated otherwise. For example, BiP binding peptides 6BB# and oxLDL were coated at 50 μg/ml. Native haemoglobin (Sigma-Aldrich, H7379), albumin, IgIV Gammagard and ovalbumin controls were prepared from lyophilized stocks. The controls were prepared by dissolving lyophilized proteins at 1 mg/ml in PBS upon resuspending by pipetting, followed by a 30 minutes period at the roller device, at room temperature. The protein solutions were centrifuged for 10 minutes at 16,000*g and diluted in coat buffer. […] After 5 washes with wash buffer followed by two washes with PBS, binding of antibodies was assessed. […] Plates were read at 450 nm. Triplicates were averaged and standard deviations calculated. […] Subsequently, sub-optimal concentrations of chaperones for binding to misfolded protein ligands are determined, and these concentrations are used for inhibition studies. […]"}, "immobilized BiP": {"molecular_target": "T2, immobilized BiP (Homo sapiens, UniProt P11021)", "T2 construct": "The human BiP gene except the signal peptide encoding region was obtained from Geneart (Germany); linker […]; made in house; host or cells: HEK 293E cells, transient transfection, PABC674 vector; secreted into the medium", "T2 sequence (P11021 19-654)": "as above", "assay": "Depletion of solutions from misfolded proteins using immobilized BiP (ELISA)", "format": "binding", "settings": "BiP coated at 5 μg/ml; 1, 10, 100 μg/ml misfolded protein", "description": "We analysed whether recombinant human BiP with a C-terminal FLAG-tag and His-tag can be applied for depleting solutions from misfolded proteins comprising crossbeta structure.\nBiP was coated at a concentration of 5 μg/ml at Greiner Microlon high-binding plates, for 1 h at room temperature with motion. As a negative control buffer was coated. ELISAs were performed essentially as described before. […] All binding buffers were PBS/0.1% (v/v) Tween20. Binding of dOVA was assayed using monoclonal anti-chicken egg albumin antibody (Sigma, A6075, 1:10.000 dilution) and RAMPO (Dako Cytomation, P0260, 1:3.000). […] Background signals obtained with buffer coated wells that were subsequently overlayed with protein solutions (see below), were subtracted from signals obtained with wells with coated BiP."}},
  "data": [
    {"molecule": "dOVA standard: heat-denatured chicken ovalbumin (protein) GSIGAASMEFCFDVFKELKVHHANENIFYCPIAIMSALAMVYLGAKDSTRTQINKVVRFDKLPGFGDSIEAQCGTSVNVHSSLRDILNQITKPNDVYSFSLASRLYAEERYPILPEYLQCVKELYRGGLEPINFQTAADQARELINSWVESQTNGIIRNVLQPSSVDSQTAMVLVNAIVFKGLWEKAFKDEDTQAMPFRVTEQESKPVQMMYQIGLFRVASMASEKMKILELPFASGTMSMLVLLPDEVSGLEQLESIINFEKLTEWTSSNVMEERKIKVYLPRMKMEEKYNLTSVLMAMGITDVFSSSANLSGISSAESLKISQAVHAAHAEINEAGREVVGSAEAGVDAASVSEEFRADHPFLFCIKHIATNAVLFFGRCVSP", "values": [
      {"measurement": "Appearance on TEM images", "setting": "[1]", "result": "aggregates into non-fibrillar multimers"},
      {"measurement": "Binding of concentration series of BiP to coated ligand", "setting": "human BiP", "result": "has been established"},
      {"measurement": "Extraction from solution by immobilized BiP", "setting": "immobilized BiP", "result": "can be extracted"}
    ]}
  ]
}
